Laboratory results as given in patent US20040123349A1 (published 2004).

T1: MBP-SINAT5
T1 sequence: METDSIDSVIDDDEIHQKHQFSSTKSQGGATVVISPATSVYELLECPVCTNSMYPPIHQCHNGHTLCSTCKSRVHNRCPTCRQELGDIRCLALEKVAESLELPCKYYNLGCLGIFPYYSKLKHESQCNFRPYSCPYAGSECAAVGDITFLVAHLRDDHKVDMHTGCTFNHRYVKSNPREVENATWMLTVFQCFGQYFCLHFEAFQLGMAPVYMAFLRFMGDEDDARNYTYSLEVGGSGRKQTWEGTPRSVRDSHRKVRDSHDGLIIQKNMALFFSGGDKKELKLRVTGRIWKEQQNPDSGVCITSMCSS

T2: Myc-NAC1 (Arabidopsis, UniProt Q84TE6 1-324)
T2 construct: Product of the 35S-6xMyc-NAC1 transgene in Arabidopsis thaliana; immunoprecipitated with anti-Myc antibody; also called 6xMyc-NAC1; Myc-tagged NAC1; not shown: 6xMyc tag
T2 sequence (looked up): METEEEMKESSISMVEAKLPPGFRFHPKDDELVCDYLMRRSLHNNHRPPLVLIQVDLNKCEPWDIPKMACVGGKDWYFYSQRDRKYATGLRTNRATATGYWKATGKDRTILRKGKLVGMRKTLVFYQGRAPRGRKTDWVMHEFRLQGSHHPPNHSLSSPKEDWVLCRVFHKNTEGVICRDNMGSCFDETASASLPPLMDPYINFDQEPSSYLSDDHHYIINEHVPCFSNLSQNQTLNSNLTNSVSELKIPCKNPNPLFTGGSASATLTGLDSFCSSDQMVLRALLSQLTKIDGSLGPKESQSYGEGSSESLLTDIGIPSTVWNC

T3: Myc-NAC1, Q84TE6
T3 chain: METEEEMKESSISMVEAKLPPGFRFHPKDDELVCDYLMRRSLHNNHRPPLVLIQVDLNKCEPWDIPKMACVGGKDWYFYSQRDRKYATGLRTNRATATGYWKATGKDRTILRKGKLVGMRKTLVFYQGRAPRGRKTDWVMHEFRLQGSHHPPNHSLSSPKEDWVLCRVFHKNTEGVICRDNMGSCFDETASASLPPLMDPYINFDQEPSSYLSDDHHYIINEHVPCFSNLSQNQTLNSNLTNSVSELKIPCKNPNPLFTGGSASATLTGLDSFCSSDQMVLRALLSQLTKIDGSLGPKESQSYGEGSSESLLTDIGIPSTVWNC


What was measured:
MBP-SINAT5 = test system: T1, MBP-SINAT5
Myc-NAC1 = biological target: T2, Myc-NAC1; experiment: immunoprecipitation with anti-Myc from roots of double transgenic plants, Western blot with anti-SINAT5
Protocol: Western and Northern blot analyses. Antibody to SINAT5 was raised in rabbits using as an antigen the synthetic […] peptide […] (SEQ ID NO:5) corresponding to amino acid residues 3 to 18 of SINAT5 polypeptide (SEQ ID NO:1). Antibodies to c-Myc (SC40 and SC40-AC) and actin (SC1616) from Santa Cruz Biotechnology were used for immunoprecipitation and/or Western blotting. Each lane contained 10 or 20 μg protein. RNA extraction was performed by RNeasyR Plant Mini kit (Qiagene). Northern blot analysis was described previously²⁰, using as probes a NAC1 cDNA fragment encoding the NAC1 C-terminal region (amino acid 200 to 324) and a SINAT5-specific EcoRI-NdeI fragment. The 18S rRNA was used as a loading control. Each lane contained 10 μg RNA.
SINAT5 affect on expression of NAC1 in roots. Referring now to FIG. 4, there is shown the relationship between SINAT5 and NAC1 expression levels in transgenic plants. […] Root cultures from a myc-NAC1 transgenic line were treated with 50 μM of proteasome inhibitor MG 132 (+) or DMSO (−) for 3 hr. Protein extracts were processed for Western blot analysis. […] Myc-tagged proteins from roots of double transgenic plants were immunoprecipitated with antibodies specific for Myc and processed for Western blot analysis with antibodies specific for SINAT5. […] Total RNAs from the same transgenic lines were analyzed by Northern blot. […]

Myc-NAC1, Q84TE6 = biological target: T3, Myc-NAC1, Q84TE6

Molecule	self-ubiquitylation activity (E3 activity) of WT SINAT5, in vitro ubiquitylation assay (MBP-SINAT5)	binding result (Myc-NAC1)	in vitro ubiquitylation of myc-NAC1 immunopurified from transgenic plants (Western blot) (Myc-NAC1, Q84TE6)
MBP-SINAT5 (C49S) mutant	the C49S mutant protein was able to inhibit the self-ubiquitylation activity of the WT SINAT5 when present at a 5-10 fold excess		
SINAT5 (wildtype) (enzyme, GenBank AF480944 is printed for the gene; also called WT SINAT5; SINA of Arabidopsis thaliana 5) METDSIDSVIDDDEIHQKHQFSSTKSQGGATVVISPATSVYELLECPVCTNSMYPPIHQCHNGHTLCSTCKSRVHNRCPTCRQELGDIRCLALEKVAESLELPCKYYNLGCLGIFPYYSKLKHESQCNFRPYSCPYAGSECAAVGDITFLVAHLRDDHKVDMHTGCTFNHRYVKSNPREVENATWMLTVFQCFGQYFCLHFEAFQLGMAPVYMAFLRFMGDEDDARNYTYSLEVGGSGRKQTWEGTPRSVRDSHRKVRDSHDGLIIQKNMALFFSGGDKKELKLRVTGRIWKEQQNPDSGVCITSMCSS		binds	myc-NAC1 can be ubiquitylated by SINAT5 and this reaction is clearly dependent on E1, E2, and SINAT5 as an E3 ligase
